Experimental data published in patent publication US20250108100A1, “C-TERMINAL FRAGMENT OF APOLIPOPROTEIN E AND APPLICATION THEREOF IN INHIBITING y-SECRETASE ACTIVITY” (SYNPHATEC (SHANGHAI) BIOPHARMACEUTICAL TECHNOLOGY CO., LTD., priority 2022, published 2025).
“Also recorded” adds a separate entry of the source.

System: human APP co-expressed in HEK 293T cells
Experiment: α-CTF produced by APP co-expressed in HEK 293T cells (Western blot)
Assay type: cell-based
Settings: for α-CTF produced by co-expressed APP: Western blot, vs GFP control; for degree of α-CTF increase compared to ApoE CT: ApoE CT positive control
Description: • a) A plasmid expressing the target protein in mammalian cells was constructed, and the protein expression promoter is CAG. • b) The target protein was expressed in HEK 293T cell line. Cells were subcultured one day before transfection, and transfection was performed when the degree of cell adhesion reached 70%-80%. The transfection reagent was lipofectamine2000 (ThermoFisher). • c) 4-6 hours post transfection, the medium were replaced with fresh cell culture medium. • d) 36-48 hours post transfection, the cells were lysed (10% 1M tris-HCl (pH=6.8), 4% SDS, 20% glycerol, 0.01% bromophenol blue), and the protein samples were collected and used for Western blot or stored in a −80° C. freezer. • e) Polyacrylamide gel electrophoresis. Before protein loading, the protein was boiled at 98° C. for 10 min, and then centrifuged at 12000 rpm for 10 min. Electrophoresis: 80V for the upper stacking gel; 120V for the lower separating gel. • f) Protein transfer. The filter paper was soaked in the electrophoresis solution before use, and the PVDF membrane was put in methanol for 10s to activate, and the gel after electrophoresis was taken out from the electrophoresis tank, put in the order of filter paper—PVD membrane—gel-filter paper from bottom to top, and they were put into the transfer instrument, with transferring in constant current at 0.1 A for 70 min. • g) Blocking and antibody incubation: the transferred PVDF membrane was placed in 5% BSA/TBST blocking solution, and blocked on a shaker at room temperature for 1 hour. The primary antibody was used to incubate at 4° C. overnight on a shaker (12-16 h); 1×TBST was used to wash three times, once every 10 minutes; the secondary antibody was used to incubate, shaked at room temperature for 1-2 h; 1×TBST was used to wash three times, once every 10 minutes. • h) Imaging by development: development was performed with ECL chemiluminescence hypersensitive chromogenic reagent.
Plasmids were transfected in HEK 293T or N2A cells for 36-48 hours and then lysed in cell lysis buffer [10% 1M tris-HCl (pH=6.8), 4% SDS, 20% glycerol, 0.01% bromophenol blue]. Lysates were shaken at room temperature for 10 min, then boiled for 10 min, and centrifuged at 12,000×g for 10 min. Proteins were run on 8% or 12% Tris-glycine SDS-PAGE and transferred to PVDF membranes (Life Technologies). Samples were incubated overnight at 4° C. with primary antibody diluted in 5% BSA buffer (in 1×TBST). After washing 3 times with 1×TBST, they were incubated with secondary antibody diluted in 5% BSA buffer (in 1×TBST) for 2 hours at room temperature. Finally, after washing 3 times with 1×TBST, the signal was detected by ECL Western blotting substrate (Solarbio, PE0010).
Data were analyzed by GraphPad Prism software (v6) using unpaired, paired, or one-sample t-tests. Aβ40 and Aβ42 levels were normalized to the corresponding GFP controls. α-CTF levels were normalized to FL-APP and corresponding GFP controls. All data are represented as mean±SEM. Statistical significance was defined as p<0.05. One, two, three and four stars (*) in the graph indicate p-values <0.05, <0.01, <0.001 and <0.0001, respectively.

Row | Molecule | α-CTF produced by co-expressed APP | degree of α-CTF increase compared to ApoE CT | α-CTF produced by co-expressed APP (listed as ApoE CT from a non-human primate)
1 | CT E20: SEQ ID NO: 55; multiple site mutant of ApoE CT (protein) ARMEEMGSRTRDRLDEVKEAVAEVRAKLEEQAQQIRLQAAAFQARLKSWFEPLVEDMQRAWAGLVEKVQAAVGTSAAPVASDNH | can no longer increase α-CTF; also recorded: failed to increase |  | 
2 | CT F5: SEQ ID NO: 56; multiple site mutant of ApoE CT (protein) AAAAAMGSRTRDRLDEVKEQVAEVRAKLEEQAQQIRLQAEAFQARLKSWFEPLVEDMQRQWAGLVEKVQAAVGTSAAPVPSDNH | can no longer increase α-CTF; also recorded: failed to increase |  | 
3 | CT R10: SEQ ID NO: 57; ApoE CT mutant S75A + P78A + V79A + P80A + S81A + D82A + N83A + H84A (protein) ARMEEMGSRTRDRLDEVKEQVAEVRAKLEEQAQQIRLQAEAFQARLKSWFEPLVEDMQRQWAGLVEKVQAAVGTAAAAAAAAAA | still significantly increase α-CTF; also recorded: can also significantly increase α-CTF |  | 
4 | CT LF5: SEQ ID NO: 58; ApoE CT mutant R11A + D12A + R13A + L14A + D15A (protein) ARMEEMGSRTAAAAAEVKEQVAEVRAKLEEQAQQIRLQAEAFQARLKSWFEPLVEDMQRQWAGLVEKVQAAVGTSAAPVPSDNH | still significantly increase α-CTF; also recorded: can also significantly increase α-CTF |  | 
5 | CT LM5: SEQ ID NO: 59; ApoE CT mutant E23A + V24A + R25A + K27A (protein) ARMEEMGSRTRDRLDEVKEQVAAAAAALEEQAQQIRLQAEAFQARLKSWFEPLVEDMQRQWAGLVEKVQAAVGTSAAPVPSDNH | still significantly increase α-CTF; also recorded: can also significantly increase α-CTF |  | 
6 | CT A20: SEQ ID NO: 46; ApoE CT mutant Q20A (Q235A of SEQ ID NO: 12) (protein) ARMEEMGSRTRDRLDEVKEAVAEVRAKLEEQAQQIRLQAEAFQARLKSWFEPLVEDMQRQWAGLVEKVQAAVGTSAAPVPSDNH | significantly increased α-CTF |  | 
7 | CT A40: SEQ ID NO: 47; ApoE CT mutant E40A (E255A of SEQ ID NO: 12); table prints CT A20 (protein) ARMEEMGSRTRDRLDEVKEQVAEVRAKLEEQAQQIRLQAAAFQARLKSWFEPLVEDMQRQWAGLVEKVQAAVGTSAAPVPSDNH | significantly increased α-CTF |  | 
8 | CT A60: SEQ ID NO: 48; ApoE CT mutant Q60A (Q275A of SEQ ID NO: 12) (protein) ARMEEMGSRTRDRLDEVKEQVAEVRAKLEEQAQQIRLQAEAFQARLKSWFEPLVEDMQRAWAGLVEKVQAAVGTSAAPVPSDNH | significantly increased α-CTF |  | 
9 | CT A65: SEQ ID NO: 49; ApoE CT mutant V65A (V280A of SEQ ID NO: 12) (protein) ARMEEMGSRTRDRLDEVKEQVAEVRAKLEEQAQQIRLQAEAFQARLKSWFEPLVEDMQRQWAGLAEKVQAAVGTSAAPVPSDNH | significantly increased α-CTF |  | 
10 | CT A72: SEQ ID NO: 50; ApoE CT mutant V72A (V287A of SEQ ID NO: 12) (protein) ARMEEMGSRTRDRLDEVKEQVAEVRAKLEEQAQQIRLQAEAFQARLKSWFEPLVEDMQRQWAGLVEKVQAAAGTSAAPVPSDNH | significantly increased α-CTF | even higher | 
11 | CT A80: SEQ ID NO: 51; ApoE CT mutant P80A (P295A of SEQ ID NO: 12) (protein) ARMEEMGSRTRDRLDEVKEQVAEVRAKLEEQAQQIRLQAEAFQARLKSWFEPLVEDMQRQWAGLVEKVQAAVGTSAAPVASDNH | significantly increased α-CTF | even higher | 
12 | CT A36/74: SEQ ID NO: 52; ApoE CT mutant R36A + T74A (R251A + T289A of SEQ ID NO: 12) (protein) ARMEEMGSRTRDRLDEVKEQVAEVRAKLEEQAQQIALQAEAFQARLKSWFEPLVEDMQRQWAGLVEKVQAAVGASAAPVPSDNH | significantly increased α-CTF | even higher | 
13 | CT E5: SEQ ID NO: 53; multiple site mutant of ApoE CT (protein) ARMEEMGSRARDRLAEVKEAVAEVAAKLEAQAQQARLQAAAFQAALKSWAEPLVADMQRAWAGLAEKVQAAVGTAAAPVASDNH | can no longer increase α-CTF; also recorded: failed to increase |  | 
14 | CT E10: SEQ ID NO: 54; multiple site mutant of ApoE CT (protein) ARMEEMGSRARDRLDEVKEAVAEVRAKLEAQAQQIRLQAAAFQARLKSWAEPLVEDMQRAWAGLVEKVQAAVGTSAAPVASDNH | can no longer increase α-CTF; also recorded: failed to increase |  | 
15 | ApoE2-M3F: SEQ ID NO: 60; ApoE2 with 3×FLAG added between residues 215 and 216 (protein, 3xFLAG inserted between residues 215 and 216) KVEQAVETEPEPELRQQTEWQSGQRWELALGRFWDYLRWVQTLSEQVQEELLSSQVTQELRALMDETMKELKAYKSELEEQLTPVAEETRARLSKELQAAQARLGADMEDVCGRLVQYRGEVQAMLGQSTEELRVRLASHLRKLRKRLLRDADDLQKCLAVYQAGAREGAERGLSAIRERLGPLVEQGRVRAATVGSLAGQPLQERAQAWGERLRGSGGSDYKDHDGDYKDHDIDYKDDDDKSGSGSARMEEMGSRTRDRLDEVKEQVAEVRAKLEEQAQQIRLQAEAFQARLKSWFEPLVEDMQRQWAGLVEKVQAAVGTSAAPVPSDNH | significantly increases α-CTF; also recorded: increased α-CTF |  | 
16 | ApoE2 MD10: SEQ ID NO: 61; ApoE2 with amino acid residues at positions 244 to 254 deleted (protein) KVEQAVETEPEPELRQQTEWQSGQRWELALGRFWDYLRWVQTLSEQVQEELLSSQVTQELRALMDETMKELKAYKSELEEQLTPVAEETRARLSKELQAAQARLGADMEDVCGRLVQYRGEVQAMLGQSTEELRVRLASHLRKLRKRLLRDADDLQKCLAVYQAGAREGAERGLSAIRERLGPLVEQGRVRAATVGSLAGQPLQERAQAWGERLRARMEEMGSRTRDRLDEVKEQVAEVRAKLEAFQARLKSWFEPLVEDMQRQWAGLVEKVQAAVGTSAAPVPSDNH | significantly increases α-CTF; also recorded: also increased α-CTF |  | 
17 | monkey CT: SEQ ID NO: 62; non-human primate-derived ApoE CT, R36S+T74A+A76T versus human ApoE CT (protein) ARMEEMGSRTRDRLDEVKEQVAEVRAKLEEQAQQISLQAEAFQARLKSWFEPLVEDMQRQWAGLVEKVQAAVGASTAPVPSDNH | also increase α-CTF | identical to that of human ApoE CT | significantly increased α-CTF
